# Measured values published in patent US20230380451A1, “MEANS AND METHODS TO DETOXIFY MYCOTOXINS” (priority 2020, published 2023).
# B1: ADH-Lk: artificial amino acid sequence, variant of a wild type alcohol dehydrogenase (protein)
# chain: MTDRLKGKVAIVTGGTHGIGLAIATKFVTEGAKVVITGRRADVGEKAAKSIGGTDVIRFVQHDVSDEAGWGKLFDTTEETFGPVTTLVNNAGIGYRKSVEDTTTEEWRKLLSVNLDGVFFGTRLGIQRMKCKGLGASIINMSSILGQVGDPATGAYSASKGAVRIMSKSAALLCALKDYDVRVNTVHPGPIKTPLMDDMPGAEEMMSQRTKTPMGHIGEPNDIAWVCVYLASDESKFATGAEFVVDGGYTAQ
# modifications: ADH-Lk
# What was measured:
# [1] = tested on: translation of firefly luciferase; assay type: biochemical
# Experimental: To determine whether or not the conversion of DON into epi-THS through Akr I-III and the conversion of DON into THS through ADH-Lk, as described herein, leads to a decrease in toxicity, two assays were performed. The in vitro TNT® Quick Coupled Transcription/Translation System (Promega) was used to measure how well the metabolites inhibit protein synthesis and the CeIITox™ Green Cytotoxicity Assay (Promega; […].
# For the in vitro transcription/translation assay, 40 μl of the TNT T7 quick master mix were mixed with 2 μl firefly luciferase encoding DNA and with 4 μl metabolites to obtain final concentrations from 0.01 μM-150 μM in the reaction. Reactions lacking metabolites were the reference for maximum luminescence output. Reactions were incubated at 30° C. for 90 min to allow for transcription of luciferase gene and subsequent translation. In an opaque (white) 96-well plate (Greiner Bio One) 100 μl Luciferase reagent where mixed with 4 μl of the reactions and immediately placed into a Synergy HT plate reader (Biotek) to read luminescence with a 2 sec and a 10 sec measurement delay. […].
# [2] = DON transformation assay with ADH-Lk; assay type: biochemical; conditions: for DON / THS [peak area]: 30° C.
# Experimental: . All components of the reaction except of isopropanol and NADP+ were mixed on ice and a 0 minutes sample was removed (mix sample 1:1 (v/v) with 100% methanol to stop any reaction). Immediately thereafter, reaction mixtures were transferred to the heating block and the reaction was started by adding NADP+ and IPA. The reaction was allowed to proceed for 22 hours at 30° C. A control reaction with the same set up, but lacking the enzyme was set up in parallel. Samples were removed in regular intervals in order to monitor the progression of the reaction and immediately mixed 1:1 (v/v) with 100% methanol to stop the reaction. They were subsequently analyzed using the HPLC-MS/MS method described in below.
# For HPLC-MS/MS analysis, DON and THS were separated on a 150 mm×2.1 mm Phenomenex Kinetex Biphenyl column with a particle size of 2.6 μm. The mobile phase consisted of a mixture of methanol and ultrapure water with 0.1% (v/v) acetic acid. Ions were generated using electro spray ionization (ESI) in negative ionization mode. The quantification is done using a QTrap and/or triple quadrupole mass detector. […].
Molecule,times weaker effect on luminescence output compared to DON [1],DON ([2]; time 0 h),DON ([2]; time 3.5 h),THS [peak area] ([2]; time 3.5 h),DON ([2]; time 22 h),THS [peak area] ([2]; time 22 h),production of THS from DON ([2]; presence of enzyme in the reaction)
8-amino-DON [Akr 8-amino-DON],5-10 times,,,,,,
B1,,399.9 µg/L,387.1 µg/L,7.88E+03,296.6 µg/L,1.13E+05,leads to the production of THS from DON
